Measured values taken from patent US20040197795A1 (published 2004).

Target: T1, RNase I, an RNase from E. coli (Promega Cat. #M4261) (E. coli, UniProt P21338 24-268)
T1 sequence (looked up): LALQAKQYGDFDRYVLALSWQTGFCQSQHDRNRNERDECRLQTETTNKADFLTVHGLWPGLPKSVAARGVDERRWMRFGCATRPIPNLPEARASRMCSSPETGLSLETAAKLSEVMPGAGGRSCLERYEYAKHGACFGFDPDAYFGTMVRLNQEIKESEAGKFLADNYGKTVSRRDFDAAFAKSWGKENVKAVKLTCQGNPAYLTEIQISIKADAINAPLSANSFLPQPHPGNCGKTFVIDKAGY
Assay: cell-based or functional assay

% inhibition of RNase; RNasin Plus-brand inhibitor without DTT increased 10-fold (10×); 58° C.: 100%
B1: "RNasin Plus"-brand RNase inhibitor (recombinant rat-derived RNase inhibitor protein, Promega Pt # N261) (other, UniProt P29315 1-456, looked up)
chain: MSLDIQCEQLSDARWTELLPLIQQYQVVRLDDCGLTEVRCKDIRSAIQANPALTELSLRTNELGDAGVGLVLQGLQNPTCKIQKLSLQNCSLTEAGCGVLPDVLRSLSTLRELHLNDNPLGDEGLKLLCEGLRDPQCRLEKLQLEYCNLTATSCEPLASVLRVKPDFKELVLSNNDFHEAGIHTLCQGLKDSACQLESLKLENCGITSANCKDLCDVVASKASLQELDLGSNKLGNTGIAALCSGLLLPSCRLRTLWLWDCDVTAEGCKDLCRVLRAKQSLKELSLAGNELKDEGAQLLCESLLEPGCQLESLWVKTCSLTAASCPHFCSVLTKNRSLFELQMSSNPLGDSGVVELCKALGYPDTVLRVLWLGDCDVTDSGCSSLATVLLANRSLRELDLSNNCMGDNGVLQLLESLKQPSCILQQLVLYDIYWTDEVEDQLRALEEERPSLRIIS
